Patent publication US11116820B2, “Treatment of hyperinsulinemic hypoglycemia with exendin-4 derivatives” (priority 2016, dated 2021)

Tests used:
mouse GLP-1 receptor [1] = molecular target: T1, mouse GLP-1 receptor (Mus musculus, UniProt O35659); experiment: cAMP functional assay (HTRF), agonist mode, in βTC6 cells; type: cell-based; settings: peptides dissolved at 10 mM in PBS, 10 minutes at room temperature
T1 construct: cells that endogenously express the mouse GLP-1 receptor; endogenous in cells; host or cells: βTC6 cells (mouse)
T1 sequence (O35659 22-463): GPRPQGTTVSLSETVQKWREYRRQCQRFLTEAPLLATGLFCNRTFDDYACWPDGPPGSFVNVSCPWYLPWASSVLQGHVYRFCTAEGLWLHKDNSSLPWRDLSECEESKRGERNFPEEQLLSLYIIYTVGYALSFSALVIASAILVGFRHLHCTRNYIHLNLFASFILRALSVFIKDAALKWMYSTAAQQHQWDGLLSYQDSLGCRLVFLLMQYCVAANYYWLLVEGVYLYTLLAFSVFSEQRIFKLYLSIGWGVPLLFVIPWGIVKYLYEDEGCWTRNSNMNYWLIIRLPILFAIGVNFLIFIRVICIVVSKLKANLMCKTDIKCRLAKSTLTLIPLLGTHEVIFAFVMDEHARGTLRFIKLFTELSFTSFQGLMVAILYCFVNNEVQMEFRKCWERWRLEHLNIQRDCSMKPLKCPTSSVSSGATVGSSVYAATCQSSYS
Experimental: The agonistic and antagonistic effects of each of the four peptides on the receptor GLP-1 was tested in βTC6 cells, which are cells that endogenously express the mouse GLP-1 receptor, in a cAMP functional assay. […] Following the incubation period, the resulting intracellular level of cAMP was measured by homogenous time resolved fluorescence (HTRF).

mouse GLP-1 receptor [2] = molecular target: T1, mouse GLP-1 receptor; experiment: cAMP functional assay (HTRF), antagonist mode, βTC6 cells stimulated with 0.3 nM GLP-1 (7-37); type: cell-based; settings: 10 minutes at room temperature
Experimental: The agonistic and antagonistic effects of each of the four peptides on the receptor GLP-1 was tested in βTC6 cells, which are cells that endogenously express the mouse GLP-1 receptor, in a cAMP functional assay.
Following the incubation period, the resulting intracellular level of cAMP was measured by HTRF.

Substance: pegylated exendin(9-39): pegylated form of exendin(9-39), tested as comparator peptide
- agonistic activity on GLP-1 receptor (intracellular cAMP) (mouse GLP-1 receptor [1]): None of the four peptides exhibited agonistic activity
- antagonistic activity on GLP-1 receptor, overall (in words) (mouse GLP-1 receptor [2]): did not exhibit significant antagonistic activity
